A short description of series [1]: Fe retained in sedimented fraction of suspended salt (AES/ICP). It counts as physicochemical. On the procedure: The prepared FePA as described in Example 3 was suspended either at pH 2 or at pH 5,5 in a concentration of 35.8 g per liter. After sedimentation, the supernatant fraction of both suspensions was analysed by AES/ICP.
Subsequently, the suspension of pH=2 was centrifuged 10 minutes at 6000 rpm at room temperature. The pellet was dissolved in 15 g concentrated […] and the solution was analyzed by AES/ICP.
This procedure was repeated with iron phosphate. This salt was prepared in the same way as the preparation of the essential cation phytates: the cation was dissolved as its sulfate, and subsequently precipitated with a basic solution of sodium phosphate. The precipitate was collected and washed.

Series [2] is described as follows: Mineral partitioning in ground Cruesli with added FePA and/or phytase (AES-ICP). It counts as biochemical. The settings on record: phytase 115 FTU/g. The protocol:
0.1 g of this preparation was added to 20 g ground Cruesli™ (Quaker Foods & Beverages). […] […] The suspension was incubated at 37° C. with constant stirring for 4 h, and subsequently centrifuged for 20 minutes at 16000 rpm and 4° C. After centrifugation, the sediment and the supernatant fraction were separated, weighed and analyzed by AES-ICP to determine their phosphorus, calcium, magnesium, zinc and iron content. Control suspensions without phytase activity (but with the FePA), and without both FePA and phytase underwent the same procedure.

Series [3] is described as follows: Mineral partitioning in ground Cruesli fractions with added phytase activity (AES-ICP). The format is biochemical. The protocol: Various phytase preparations are commercially available. We have used the liquid formulation NATUPHOS™ 5000 L (DSM, Delft, The Netherlands). Again we used ground Cruesli™ (Quaker Foods & Beverages) as model phytate-containing foodstuff. About 20 grams ground Cruesli™ was suspended in two separate lots of 40 g acetate buffer (0.25 M, pH 5.5, 37° C.). To one of the lots, 1.2 g of the phytase preparation was added, to achieve a final activity of 100 FTU/g. The suspensions were incubated at 37° C. with constant stirring for 1,5 h, and subsequently centrifuged for 20 minutes at 16000 rpm and 4° C. After centrifugation the sediment and the supernatant fraction were separated, weighed and analyzed by AES-ICP to determine their phosphorus, calcium, magnesium and zinc content.
The procedure for this example was the same as for Example 6, but a lower final phytase activity in the incubation was used: 1 FTU/g, instead of 100. The incubation time was lowered to 1 hour.
The procedure for this example was the same as for Example 7, but at a lower pH value and a longer incubation time. This was done to simulate the conditions existant in the stomach. We looked specifically at iron, because iron salts are believed to be particularly poorly soluble at higher pH values, making breakdown in the stomach an attractive option. Iron concentrations were determined by AES-ICP.

For series [4] the following is noted: characteristic stomach pH-values; cited from earlier work.
A short description of series [5]: Phytase activity on different substrates (method of Engelen et al.). The format is biochemical. The settings on record: 37° C.; for Activity: incubation 60 minutes. On the procedure: The activity of Aspergillus niger phytase (NATUPHOS™) was tested against NaPA and CaPA. The influence of the metal in the phytate source on the phytase activity (37° C. using an incubation time of 60 minutes) was investigated. The rate of phytate hydrolysis was determined using the analytical method described by Engelen et al., J. AOAC Int. 77:760-764 (1994).

The mark [6] stands for this setting: incubation pH 2, 37° C., 4 h, where added: Fe-phytate 450 mg/kg.
Where [7] appears, read: incubation pH <1, where added: Fe-phytate 450 mg/kg.
[8] abbreviates: pH 2, 37° C., 2 h, phytase 1 FTU/g.
Setting [9] is: pH 5.5, 37° C., 1 h, phytase 1 FTU/g.
The mark [10] stands for this setting: pH 5.5, 37° C., 1.5 h, phytase 100 FTU/g.
Setting [11] is: incubation pH 5.5, where added: Fe-phytate 450 mg/kg.

In the case of iron phosphate [reference compound], the entries for the “Fe retained in the sedimented fraction” value in series [1] (suspended at pH 2) and in series [1] (suspended at pH 5.5) were “less than 10%” and “more than 90%”, respectively.
For the molecule Iron-phytate [Fe-phytate], the “Fe retained in the sedimented fraction” value in series [1] (suspended at pH 2) and in series [1] (suspended at pH 5.5) was “more than 90%” throughout. The “Percentage of mineral in supernatant fraction, Iron” value in series [2] (setting [6]) came out at 10%; in series [2] (setting [7]), 23%. Also, the “Percentage of mineral in supernatant fraction, Phosphorus” value in series [2] (setting [6]) worked out at 9.6%; in series [2] (setting [7]), 68%.

B1: phytase: Phytase from A. niger commercialized under the trade name NATUPHOS; liquid (5000 L) and granulated (5000 G) formulations, 5000 FTU/g (protein, UniProt P34752 24-467, looked up)
Phytase A: ASRNQSSCDTVDQGYQCFSETSHLWGQYAPFFSLANESVISPEVPAGCRVTFAQVLSRHGARYPTDSKGKKYSALIEEIQQNATTFDGKYAFLKTYNYSLGADDLTPFGEQELVNSGIKFYQRYESLTRNIVPFIRSSGSSRVIASGKKFIEGFQSTKLKDPRAQPGQSSPKIDVVISEASSSNNTLDPGTCTVFEDSELADTVEANFTATFVPSIRQRLENDLSGVTLTDTEVTYLMDMCSFDTISTSTVDTKLSPFCDLFTHDEWINYDYLQSLKKYYGHGAGNPLGPTQGVGYANELIARLTHSPVHDDTSSNHTLDSSPATFPLNSTLYADFSHDNGIISILFALGLYNGTKPLSTTTVENITQTDGFSSAWTVPFASRLYVEMMQCQAEQEPLVRVLVNDRVVPLHGCPVDALGRCTRDSFVRGLSFARSGGDWAECFA
Take B1: in series [3] (setting [8]), the “% of mineral in supernatant fraction, Iron” value is 14% and the “% of mineral in supernatant fraction, Phosphorus” value stood at 33%. Moreover, in series [3] (setting [9]), the “% of mineral in supernatant fraction, Calcium” value is listed as 30%; the “% of mineral in supernatant fraction, Magnesium” value is reported as 36%; the “% of mineral in supernatant fraction, Phosphorus” value was 30%; the “% of mineral in supernatant fraction, Zinc” value came to 22%. Besides, in series [3] (setting [10]), the “% of mineral in supernatant fraction, Calcium” value is 40%; the “% of mineral in supernatant fraction, Magnesium” value stood at 49%; the “% of mineral in supernatant fraction, Phosphorus” value was 42%; the “% of mineral in supernatant fraction, Zinc” value worked out at 19%. Besides, the “residual activity, % of optimal activity” value in series [4] is given as “about 50%”. Also, the “activity of phytase on sodium and on calcium phytate compared” value in series [5] (60 minutes) was “equivalent”. Further, in series [5] (substrate 4.6 mM calcium phytate), the Activity is on record as 3.12 * 10^5 FTU/g. For the same molecule, in series [5] (substrate 5.1 mM calcium phytate), the Activity is 3.07 * 10^5 FTU/g. The Activity in series [5] (substrate 5.1 mM sodium phytate) was 3.06 * 10^5 FTU/g. In series [5] (substrate 5.6 mM calcium phytate), the Activity was 3.10 * 10^5 FTU/g. In series [2] (setting [11]), the “Percentage of mineral in supernatant fraction, Iron” value came to 6% and the “Percentage of mineral in supernatant fraction, Phosphorus” value was found to be 45%.

The values above are taken from patent publication US20060110492A1, “Preparation and food product comprising an active phytase” (priority 2003, published 2006).
